Columns and labels:
PrimPol WT [1] = biological target: T1, PrimPol WT (Homo sapiens, UniProt Q96LW4 1-560); experiment: EMSA; 1 mM Mn2+; EMSA: 40 mM HEPES pH 7.0, 50 mM KCl, 1 mM DTT, 5% glycerol, 0.1 mg/ml BSA, 1 mM MnCl2, 300 nM DNA, 24 C 20 min then ice (RPA assays: 50 nM DNA, 25 nM RPA, 8 C); 5% native PAGE, 0.5x Tris-glycine pH 8.3, 4 C; details: protein: recombinant; tags: N-terminal SUMO-HIS10; label: Cy5 at 5' of template; template 5' overhang 1 nt, 3' overhang 11 nt
T1 sequence: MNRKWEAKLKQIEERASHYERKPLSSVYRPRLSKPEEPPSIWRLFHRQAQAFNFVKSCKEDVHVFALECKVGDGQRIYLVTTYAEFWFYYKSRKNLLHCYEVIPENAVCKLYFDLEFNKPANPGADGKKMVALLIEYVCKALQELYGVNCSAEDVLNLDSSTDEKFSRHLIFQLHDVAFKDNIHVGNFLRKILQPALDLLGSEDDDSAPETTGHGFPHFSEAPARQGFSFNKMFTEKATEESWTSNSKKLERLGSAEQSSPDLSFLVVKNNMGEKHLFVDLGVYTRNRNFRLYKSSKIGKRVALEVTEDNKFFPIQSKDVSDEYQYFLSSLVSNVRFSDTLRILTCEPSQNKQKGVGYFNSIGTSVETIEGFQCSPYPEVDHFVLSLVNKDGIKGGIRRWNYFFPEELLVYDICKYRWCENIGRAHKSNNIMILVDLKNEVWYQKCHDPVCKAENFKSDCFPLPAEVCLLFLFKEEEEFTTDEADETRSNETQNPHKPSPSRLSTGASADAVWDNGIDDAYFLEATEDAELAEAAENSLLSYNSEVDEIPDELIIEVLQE

[2] = biological target: T2, PrimPol1-475 (RBM deleted) (Homo sapiens, UniProt Q96LW4 1-475); experiment: as above; details: protein: recombinant; tags: N-terminal SUMO-HIS10; label: Cy5 at 5' of template; template 5' overhang 1 nt, 3' overhang 11 nt
T2 sequence: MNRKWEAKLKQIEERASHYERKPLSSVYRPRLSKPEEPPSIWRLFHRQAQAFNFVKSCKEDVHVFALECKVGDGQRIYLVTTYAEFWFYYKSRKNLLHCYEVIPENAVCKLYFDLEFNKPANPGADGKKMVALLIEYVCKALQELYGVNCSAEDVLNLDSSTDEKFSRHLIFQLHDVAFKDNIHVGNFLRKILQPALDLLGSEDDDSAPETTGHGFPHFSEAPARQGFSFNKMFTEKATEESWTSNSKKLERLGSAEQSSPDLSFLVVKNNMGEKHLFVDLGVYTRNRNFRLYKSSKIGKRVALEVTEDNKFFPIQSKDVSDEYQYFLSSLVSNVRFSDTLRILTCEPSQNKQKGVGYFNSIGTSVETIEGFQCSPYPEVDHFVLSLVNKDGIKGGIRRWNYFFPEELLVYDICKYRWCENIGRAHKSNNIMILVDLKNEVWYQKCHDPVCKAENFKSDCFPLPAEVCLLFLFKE

[3] = biological target: T3, PrimPol1-363 (NTD);PrimPol363-560 (CTD) (Homo sapiens;Homo sapiens, UniProt Q96LW4;Q96LW4 1-363;363-560, |); experiment: EMSA; 1 mM Mn2+; separate NTD and CTD mixed; EMSA: 40 mM HEPES pH 7.0, 50 mM KCl, 1 mM DTT, 5% glycerol, 0.1 mg/ml BSA, 1 mM MnCl2, 300 nM DNA, 24 C 20 min then ice (RPA assays: 50 nM DNA, 25 nM RPA, 8 C); 5% native PAGE, 0.5x Tris-glycine pH 8.3, 4 C; details: protein: recombinant;recombinant, tags: N-terminal SUMO-HIS10;N-terminal SUMO-HIS10, copies: 1;1
T3 sequence 1: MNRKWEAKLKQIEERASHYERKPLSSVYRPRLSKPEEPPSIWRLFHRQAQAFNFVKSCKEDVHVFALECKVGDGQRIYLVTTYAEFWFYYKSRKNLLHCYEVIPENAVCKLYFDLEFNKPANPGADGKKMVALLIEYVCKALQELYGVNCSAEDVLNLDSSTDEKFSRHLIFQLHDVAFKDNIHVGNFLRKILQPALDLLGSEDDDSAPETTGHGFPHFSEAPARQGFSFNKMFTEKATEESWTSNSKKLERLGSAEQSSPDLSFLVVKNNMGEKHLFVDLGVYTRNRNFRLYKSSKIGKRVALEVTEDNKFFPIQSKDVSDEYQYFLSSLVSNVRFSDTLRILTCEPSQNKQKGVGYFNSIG
T3 sequence 2: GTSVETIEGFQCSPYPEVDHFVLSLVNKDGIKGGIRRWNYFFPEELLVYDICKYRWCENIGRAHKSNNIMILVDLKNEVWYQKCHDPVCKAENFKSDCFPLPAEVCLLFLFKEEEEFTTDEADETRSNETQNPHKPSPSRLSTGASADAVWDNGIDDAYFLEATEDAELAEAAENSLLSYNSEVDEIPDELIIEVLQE

PrimPol1-363 (NTD) = biological target: T4, PrimPol1-363 (NTD) (Homo sapiens, UniProt Q96LW4 1-363); experiment: EMSA; 1 mM Mn2+, 1-3 uM protein; EMSA: 40 mM HEPES pH 7.0, 50 mM KCl, 1 mM DTT, 5% glycerol, 0.1 mg/ml BSA, 1 mM MnCl2, 300 nM DNA, 24 C 20 min then ice (RPA assays: 50 nM DNA, 25 nM RPA, 8 C); 5% native PAGE, 0.5x Tris-glycine pH 8.3, 4 C; details: protein: recombinant; tags: N-terminal SUMO-HIS10; label: 5' Cy5
T4 sequence: T3 sequence 1

PrimPol363-560 (CTD) = biological target: T5, PrimPol363-560 (CTD) (Homo sapiens, UniProt Q96LW4 363-560); experiment: as above; details: protein: recombinant; tags: N-terminal SUMO-HIS10; label: 5' Cy5
T5 sequence: T3 sequence 2

PrimPol WT [4] = biological target: T1, PrimPol WT; experiment: EMSA; 1 mM Mn2+, 1 mM ATP, 200 uM dNTPs, 8 C; EMSA: 40 mM HEPES pH 7.0, 50 mM KCl, 1 mM DTT, 5% glycerol, 0.1 mg/ml BSA, 1 mM MnCl2, 300 nM DNA, 24 C 20 min then ice (RPA assays: 50 nM DNA, 25 nM RPA, 8 C); 5% native PAGE, 0.5x Tris-glycine pH 8.3, 4 C; details: protein: recombinant; tags: N-terminal SUMO-HIS10; label: 32P
[5] = biological target: T2, PrimPol1-475 (RBM deleted); experiment: as above; details: protein: recombinant; tags: N-terminal SUMO-HIS10; label: 32P
PrimPol WT;RPA = PrimPol WT;RPA (Homo sapiens;Homo sapiens, UniProt Q96LW4;P27694;P15927;P35244 1-560;1-616;1-270;1-121, |); experiment: EMSA; PrimPol added to preformed RPA:DNA; 1 mM Mn2+, ATP, dNTPs, 8 C; EMSA: 40 mM HEPES pH 7.0, 50 mM KCl, 1 mM DTT, 5% glycerol, 0.1 mg/ml BSA, 1 mM MnCl2, 300 nM DNA, 24 C 20 min then ice (RPA assays: 50 nM DNA, 25 nM RPA, 8 C); 5% native PAGE, 0.5x Tris-glycine pH 8.3, 4 C; details: protein: recombinant;recombinant; tags: N-terminal SUMO-HIS10;; copies: 1;1;1;1; label: 32P
Chain of PrimPol WT;RPA (P27694 whole entry, chain 2 of 3): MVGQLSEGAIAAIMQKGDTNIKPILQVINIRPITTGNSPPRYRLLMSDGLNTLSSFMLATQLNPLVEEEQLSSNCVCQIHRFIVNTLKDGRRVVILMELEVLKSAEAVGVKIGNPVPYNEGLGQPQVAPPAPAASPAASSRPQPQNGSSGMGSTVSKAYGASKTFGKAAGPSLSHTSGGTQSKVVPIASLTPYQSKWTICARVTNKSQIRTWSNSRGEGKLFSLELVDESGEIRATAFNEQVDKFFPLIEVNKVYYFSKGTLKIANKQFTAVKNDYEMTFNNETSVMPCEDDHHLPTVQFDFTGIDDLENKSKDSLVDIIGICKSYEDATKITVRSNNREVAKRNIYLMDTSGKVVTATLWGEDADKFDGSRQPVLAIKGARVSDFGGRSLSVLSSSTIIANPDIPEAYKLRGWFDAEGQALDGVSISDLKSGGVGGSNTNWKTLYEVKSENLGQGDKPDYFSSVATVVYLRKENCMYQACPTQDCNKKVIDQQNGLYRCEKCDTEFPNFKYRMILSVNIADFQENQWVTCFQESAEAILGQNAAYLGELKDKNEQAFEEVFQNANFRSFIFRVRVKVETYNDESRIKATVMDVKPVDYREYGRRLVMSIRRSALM
Chain of PrimPol WT;RPA (P15927 whole entry, chain 3 of 3): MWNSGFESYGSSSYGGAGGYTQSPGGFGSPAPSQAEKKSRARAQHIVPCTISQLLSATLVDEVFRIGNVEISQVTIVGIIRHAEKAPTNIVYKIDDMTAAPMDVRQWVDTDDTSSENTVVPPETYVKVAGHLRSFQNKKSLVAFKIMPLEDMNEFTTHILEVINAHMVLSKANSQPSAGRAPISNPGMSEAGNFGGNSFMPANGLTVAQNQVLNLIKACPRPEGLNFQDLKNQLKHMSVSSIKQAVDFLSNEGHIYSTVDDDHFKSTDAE
Chain of PrimPol WT;RPA (P35244 whole entry, chain 4 of 3): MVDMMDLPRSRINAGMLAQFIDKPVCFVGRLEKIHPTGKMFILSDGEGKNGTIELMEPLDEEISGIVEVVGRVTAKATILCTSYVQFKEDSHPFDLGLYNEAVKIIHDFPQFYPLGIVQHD

B1: p-p-p-12/Cy5-Acctg24 (mixed)
DNA 1: AAAAAAAAAACCTGAAAAAAAAAA
DNA 2: AGGTTTTTTTTT
modifications: primer 5'-triphosphate; primer nt 1 is ribo-A, rest DNA
PrimPol WT [1]
  Kd: 490 ± 130 nM
[2]
  Kd: 90 ± 10 nM

## AAAAAAAAAACCTGAAAAAAAAAA (ssDNA) [Cy5-Acctg24]
[3]; label: 5' Cy5
  binding result: no binding
PrimPol1-363 (NTD)
  binding result: binds
PrimPol363-560 (CTD)
  binding result: no binding

B2: Template-55/Primer-18 (dsDNA)
DNA 1: GACTACATTTCATCTGGCTTGGGCTTCATCGTTGTCGCAGACCTGGTGGATACCG
DNA 2: CGGTATCCACCAGGTCTG
[3]; label: 5' 32P on Primer-18, template 5' overhang 37 nt
  binding result: binds

B3: Acctg55 (ssDNA)
DNA: AAAAAAAAAAAAAAAAAAAAAAAAAAAAAAAAAAAAAAAAACCTGAAAAAAAAAA
PrimPol WT [4]
  binding result: binds
[5]
  binding result: binds
PrimPol WT;RPA
  binding result: binds

Reference: PMC10415149, “The role of catalytic and regulatory domains of human PrimPol in DNA binding and synthesis”
